How the values were obtained:
MAP1LC3A ATG8 (human) = assay: fluorescence polarisation; displacement: unlabelled peptide titrated onto a complex of FITC-labelled peptide (10 nM) and protein domain (1-2x KD); 50 mM sodium phosphate buffer pH 7.4 (CASK: plus 100 mM NaCl); KD calculated from IC50; technical triplets
USP7 MATH/ TRAF (human) = assay: as above
GABARAPL1 ATG8 (human) = assay: as above
[1] = molecular target: E3 ubiquitin-protein ligase NEDD4 (NEDD4) WW2 domain, GST-tagged (human); assay: as above
[2] = molecular target: importin subunit α-3 (KPNA4) ARM domain (human); assay: fluorescence polarisation; displacement as a1, with a FITC-labelled probe sampling the major pocket of the ARM domain (KPNA4, KPNA7)
FITC-STK11_mut = assay: fluorescence polarisation; saturation binding: dilution series of the protein domain added to 10 nM FITC-labelled peptide; 50 mM sodium phosphate pH 7.4, 0.05% Tween (protein dialysed in 50 mM sodium phosphate with 1 mM DTT; CASK kinase domain with 100 mM NaCl in addition); quadratic fit; technical triplets
[3] = molecular target: importin subunit α-3 (KPNA4) ARM domain (human); assay: fluorescence polarisation; displacement as a1, with a FITC-labelled probe sampling the minor pocket of the KPNA4 ARM domain

Chain of E3 ubiquitin-protein ligase NEDD4 (NEDD4) WW2 domain, GST-tagged (human) (P46934 whole entry, the tested form may be a part): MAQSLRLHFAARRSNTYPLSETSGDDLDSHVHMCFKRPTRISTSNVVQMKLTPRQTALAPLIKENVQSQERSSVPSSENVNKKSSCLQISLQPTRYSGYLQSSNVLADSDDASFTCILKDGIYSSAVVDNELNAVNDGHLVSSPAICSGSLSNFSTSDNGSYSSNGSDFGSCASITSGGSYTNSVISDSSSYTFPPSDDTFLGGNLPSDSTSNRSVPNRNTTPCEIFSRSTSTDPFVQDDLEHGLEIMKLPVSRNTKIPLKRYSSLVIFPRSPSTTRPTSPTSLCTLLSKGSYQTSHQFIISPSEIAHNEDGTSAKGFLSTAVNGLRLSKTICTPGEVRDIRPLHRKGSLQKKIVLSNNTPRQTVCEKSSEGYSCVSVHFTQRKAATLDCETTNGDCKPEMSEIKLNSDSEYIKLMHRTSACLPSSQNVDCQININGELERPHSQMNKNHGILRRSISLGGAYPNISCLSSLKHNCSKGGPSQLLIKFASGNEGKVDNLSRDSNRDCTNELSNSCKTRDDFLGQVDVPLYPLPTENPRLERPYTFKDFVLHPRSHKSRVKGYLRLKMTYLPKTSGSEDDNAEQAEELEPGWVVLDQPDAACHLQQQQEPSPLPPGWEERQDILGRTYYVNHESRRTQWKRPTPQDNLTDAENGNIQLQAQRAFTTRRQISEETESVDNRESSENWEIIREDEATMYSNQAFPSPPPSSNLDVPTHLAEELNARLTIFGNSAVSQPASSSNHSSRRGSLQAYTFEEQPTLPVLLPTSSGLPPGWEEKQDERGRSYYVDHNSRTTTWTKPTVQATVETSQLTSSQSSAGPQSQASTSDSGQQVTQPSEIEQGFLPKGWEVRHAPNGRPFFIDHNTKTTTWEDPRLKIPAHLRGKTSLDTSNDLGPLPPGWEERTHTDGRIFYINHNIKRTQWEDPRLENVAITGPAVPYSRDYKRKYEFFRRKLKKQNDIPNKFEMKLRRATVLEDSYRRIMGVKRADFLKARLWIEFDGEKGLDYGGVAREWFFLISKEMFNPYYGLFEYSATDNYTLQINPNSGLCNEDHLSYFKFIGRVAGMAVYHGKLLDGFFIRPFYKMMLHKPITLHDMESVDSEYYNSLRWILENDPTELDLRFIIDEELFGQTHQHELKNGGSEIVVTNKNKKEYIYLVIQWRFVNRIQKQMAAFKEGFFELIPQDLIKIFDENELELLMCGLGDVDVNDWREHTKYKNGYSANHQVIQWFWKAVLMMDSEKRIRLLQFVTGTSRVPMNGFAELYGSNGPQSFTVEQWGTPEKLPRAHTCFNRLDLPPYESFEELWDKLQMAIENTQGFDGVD
Chain of importin subunit α-3 (KPNA4) ARM domain (human) (O00629 whole entry, the tested form may be a part): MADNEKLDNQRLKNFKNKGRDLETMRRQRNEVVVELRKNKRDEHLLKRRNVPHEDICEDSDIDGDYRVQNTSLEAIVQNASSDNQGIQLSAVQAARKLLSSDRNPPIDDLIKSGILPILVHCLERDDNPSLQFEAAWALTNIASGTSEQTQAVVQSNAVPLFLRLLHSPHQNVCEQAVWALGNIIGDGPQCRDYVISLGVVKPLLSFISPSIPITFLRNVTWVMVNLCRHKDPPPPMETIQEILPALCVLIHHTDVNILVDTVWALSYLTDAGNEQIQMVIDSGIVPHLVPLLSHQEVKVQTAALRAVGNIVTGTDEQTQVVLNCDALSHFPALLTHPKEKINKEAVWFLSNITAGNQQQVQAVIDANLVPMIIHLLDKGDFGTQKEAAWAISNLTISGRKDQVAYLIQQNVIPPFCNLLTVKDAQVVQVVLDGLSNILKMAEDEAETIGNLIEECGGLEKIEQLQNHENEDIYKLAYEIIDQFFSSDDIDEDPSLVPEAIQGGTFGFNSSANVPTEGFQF

QTKWEPLQQVDTSTRT [KRT1 209-224 L214P peptide]
Kd (MAP1LC3A ATG8 (human)): 580 µM

YISSSSTSTMPNSSKSS [CHK2 38-53 Q51K peptide]
Kd (USP7 MATH/ TRAF (human)): 4.7 µM

DKDEWQFLDQNEDAFE [BUB1_(486-501) S492F peptide]
Kd (GABARAPL1 ATG8 (human)): < 0.3 µM

PIPGTPPRNYDSLRLQ [SCNN1B_(611-626) P618R peptide]
Kd [1]: 603 µM

YISSSSTSTMPNSSQSS [CHK2 38-53 wild-type peptide]
Kd (USP7 MATH/ TRAF (human)): 3.1 µM

YLLDGPPNPERAKLSS [CREBBP 5-19 K13E peptide]
KD, major pocket [2]: 860 µM

B1: ADP-ribosylation factor-binding protein GGA1 (GGA1) VHS domain (domain or fragment)
chain: ATNPLNKELDWASINGFCEQLNEDFEGPPLATRLLAHKIQSPQEWEAIQALTVLETCMKSCGKRFHDEVGKFRFLNELIKVVSPKYLGSRTSEKVKNKILELLYSWTVGLPEEVKIAEAYQMLKKQGIVKS
Kd (FITC-STK11_mut): 14.1 µM

PELWVAHRTAQHLSAT [ZNF526_(152-167) K160T peptide]
KD, minor pocket [3]: 395 µM

QTKWELLQQVDTSTRT [KRT1 209-224 wild-type peptide]
Kd (MAP1LC3A ATG8 (human)): 55 µM

PIPGTPPPNYDSLRLQ [SCNN1B_(611-626) wild-type peptide]
Kd [1]: 39 µM

DKDEWQSLDQNEDAFE [BUB1_(486-501) wild-type peptide]
Kd (GABARAPL1 ATG8 (human)): 5.5 µM

PIPGTRPPNYDSLRLQ [SCNN1B_(611-626) P616R peptide]
Kd [1]: 80 µM
